Measurements taken from a protein production outcome set (Wang et al. 2014).

Test: label from the status in PepcDB records

Sequence | protein production
MMKTLSPLKASLFAILASSTVLVTTVSAEPSQECDHPRSEFHKRGDRMGHDGMHKMFEGLELTDTQKADIKKLFAEQRAARSDDKPTKEERLARRAEMHALITAATFDETQAKALIGAQQEKRQAQAIERMKMQNQIYNLLTPEQQAKFKARFEAHTGKEPRSLEHHHHHH | failed
MPESYWEKVSGKNIPSSLDLYPIIHNYLQEDDEILDIGCGSGKISLELASKGYSVTGIDINSEAIRLAETAARSPGLNQKTGGKAEFKVENASSLSFHDSSFDFAVMQAFLTSVPDPKERSRIIKEVFRVLKPGAYLYLVEFGQNWHLKLYRKRYLHDFPITKEEGSFLARDPETGETEFIAHHFTEKELVFLLTDCRFEIDYFRVKELETRTGNKILGFVIIAQKLLEHHHHHH | not failed
MPGKKQEVQEELLEEQLEKAYQGRINNIKESFAGVLSVLKTANTKKLERITARSHNYLGLLHMIQGNHIKSITHSRQALEYFQRVQSLKDIADAKFNIASSLYKTDNFHDGLKGLLECRQIYKSIGEGRSECRSLKSIATIYEYWSDVNKAFLIYQECIDLATRHGDLAMLSNVYNPMSGLYLKRGDIETATKLSDKSIAIKKKIKDERGLAYSIYGKGKVFFAQQKFAQAETYFLQSLELQQKFGDKLGAGMVLNKLGLTYVEQKKYLQAEKILKQAVSLAEKHNVKVNVYKSYYSLYTLYKLQHKESNALQCLEQFVLHKENNVQSHTSDIIRSYEAANEIYRLEKDTKAQIDYLEIVQKKNTELDSFFYRVSHDLKGPISSLLGLNELIEKEQFDGEALKYFNMYKKLSTRIDAIVMDLITITRISSDKIVPVKIDFMQLIEDCIHSYAYFDNFEHIQFNIEVEEGISFQSEWVIVNTILQNLIENSIKYMRHDVKKPYVFIQVYTQGQMLCIKVTDNGQGISEEYQEKIYEMFFRANDKADGSGLGLYILKRAVERLQGTVSLKSKPGKGAAFTVCIKGE | failed
MWRYRSPEMPLTESFLDLMLIPIIGFGLAVILLIGFFLLYQEVGIFKNLKFLVIRKNNPFFILALFCLITGLALGLVGYWGILEPKLGAADLQALRRNLIILSLLLFGVTFRQYLFDLIKPVTTMAIWRKIGTFNYKNRIAILTYVLLGLIALAWMAPMASTKIIFSINDHTSHIGYIVQGRMALEEGQFPLRVAPLENFGFRYPGFQFYSQLPYFFGAIIYKFLTPTNPYTAYKILLWSALWLGGIFIYRVGFFFTRSQIAAILGGVTYMSAPYFLNNVHARGAFTEAIAQGILAIVLFYAIQTFYYPHYRHLILGALAWCALGLTHIITFVYTTIFIALLGAIFLVKNKPNHWQKGITYISLSYIWAWLLALYFLAPVALESGSLAIRRQIQAINPFNTTDITPIANLLAPNSLPHQPTELGIAPTYGFHPAVGWILLAGFGTVIYFVFAGKSLPRRLWRSQPWLIPLLSVFILALFLTWSPVNIWNLLPRQLWVTQFTFRFLTHVMWSGALLTTLAIILIFRERLRSRHLILGILIIVIASRPWLPIPRGTVTVEELLQDPLFRYSGALDYLYRLPNKAVPVNTKAQSAVEKIYGKAELQLLHPDWIPGYLSWDVFINGPLPIDVDIPYPAWPETEKPTLVLQGRVPMDKIKSQANLIVFVDQQPLTSIPLTQEELKVKVPFTDVKFAGNAFELKFIVEGETTDGNPLYIRMNHLYFDDFSAANTLLPVHATKEMCNQKGVVTNCPVEMPAEAGTVQLPILYYPAMQQVVVDNQPVKGFFTNYRDFNLLSLNLSPGKHQIQVKFTGLIWANFISLLAWLTLIITAIALKFYPRKPEQTIFK | failed
MLDSFKSALQQFAASIRFKFKSLRSYKYVPQIDSRDCGVAALASIAKYYGSDYSLAHLRELAKTSKEGTTALGIVEAAKKMKFETRAIKADMSLFDVEDIPYPFIVHIVKDGKLQHYYVVYGQEKEKVIIGDPDPTVKIATPVQIAICRRMDRCCYFSGT | failed
MATKIDKEACRAAYNLVRDDGSAVIWVTFRYDGATIVPGDQGADYQHFIQQCTDDVRLFAFVRFTTGDAMSKRSKFALITWIGEDVSGLQRAKTGTDKTLVKEVVQNFAKEFVISDRKELEEDFIRSELKKAGGANYDAQSE | not failed
MQSSAVFPLSPLIPLLQQRRLSLRHHPITAASSSDLNMSPNKPTPYVLSAIVPIVGGVALASISEVSFNWAGFSSAMASNLTNQSPNNYIFEF | failed
MGTEAEQPSPPAQQQDQENPPLCKAQNPKPARLYRFVLIFVAGSLAAWTFHALSSTNLVWKLRQLHHLPTAHYLQTRDEFALYSVEELNAFKEFYDKSVSDSVGASYTEAEQTNIKEALGALRMAQDLYLAGKDDKAARLFEHALALAPRHPEVLLRYGEFLEHNQRNIVLADQYYFQALTISPSNSEALANRQRTADVVQSLDERRLESLDSKRDALSAIHESNGALRRAKKEAYFQHIYHSVGIEGNTMTLAQTRSILETRMAVDGKSIDEHNEILGMDLAMKYINASLVQKIDITIKDILELHRRVLGHVDPIEGGEFRRNQVYVGGHIPPGPGDLALLMQRFERWLNSEHSSTLHPVNYAALAHYKLVHIHPFVDGNGRTSRLLMNTLLMRAGYPPVIIPKQQRSKYYHFLKLANEGDIRPFVRFIADCTEKTLDLYLWATSDLPQQIPMLIQTESEAGERLAQMQSPNVAQRSSILEFYESGSGDLP | failed
MKRMSSLEYHFGVKVRFYPSNNQKKMIKQNYDAQRFVYNQYVGAGRLIYHVKKANRIKQLSSGLPFVMQGMSEYENQQALRMIDTQDLISKPKNIRDKYDFLRVEDIDSLAIANAIQNYHKAWRNYHKIGYGIPTFHKKRSSWSYQTNCQYIKQDAAYLDNGTVRFIDAKHVKLPKLGIVRIAGLRKLIKKRLFNRIPIRIGTASIKKTADDQFYLSLQLGSDIAFVKDYAKTQKQIGIDLNLDNFLTDSNGAMVANPRFYRRAKKKLAHAQRILSRRERRAKKEGRSLCESKNYQKQRLAVAKLHDRIRRQRQDFLQVLSTALIKNHDLVVAEELRSKNLLKNHALAQSISDAGWRSFLTMLEYKADLHGKKFVTIDPKFTTQRCHNCGNIMGQNGYKKLTLKDRKWTCPVCGSYHIRDWNASVNILEKSKGIWKNPKIKKRSK | failed
MVIASIVIYKHSYSDLKQTLDSLLAVSSINKIVLVDNDHSDWASTYHHPKITYLKSDGNFGFGYGHNYAIKRFAAQSDYFLICNPDIVFESSEFEKLLNFIQTREEALFLPKIVYENGENQYGARLLPSPFNLFARRFSPKYAEQLDEDYLLKNFDLSKPIFAPYLHGCFMLFRSKALLELGGFDERFFMYMEDVDLSRRCAEKFGNIYYPLAQVIHLHEQGSYKNKTLLKAHLKSAWQYFCKWGWLYDAQRSSLNGKCLKQRNG | failed
MVDIVCWAVKNGSAGRNLLLIANASSEDDQFWPFLQGLRYRGFKLFATIPDRTLPDDECLTAGIEDTGSDD | failed
MGKFLIPIEFVFLAIAMTCYLWHRQNQERRRIEISIKQQTQRERFINQITQHIRQSLNLETVLNTTVAEVKTLLQVDRVLIYRIWQDGTGSAITESVNANYPSILGRTFSDEVFPVEYHQAYTKGKVRAINDIDQDDIEICLADFVKQFGVKSKLVVPILQHNRASSLDNESEFPYLWGLLITHQCAFTRPWQPWEVELMKQLANQVAIAIQQSELYEQLQQLNKDLENRVEKRTQQLAATNQSLRMEISERQKTEAALRHTNHTLQSLIAASPRGIFTLNLADQIQIWNPTAERIFGWTETEIIAHPELLTSNILLEDYQQFKQKVLSGMVSPSLELKCQKKDGSWIEIVLSAAPLLDSEENIAGLVAVVADITEQKRQAEQIRLLQSVVVNTNDAVVITEAEPIDDPGPRILYVNEAFTKITGYTAEEMLGKTPRVLQGPKTSRTELDRVRQAISQWQSVTVEAEVLNDSYKEKKSPLK | failed
MPTTQLHHHYVLCGWHVRSALTLPELPPWSATATPVDADVVIEEGEVPDRLDLHDPVESWLSVGRDGSVLLQVPQVVRIHVHAGRAMRVQRLNRHDESWRLFLLGSALGYLCLQRSLFPLHAACLRIGTQTVAFAGHSGAGKSTLAAALLKRGHGLLSDDLTVIRLDSAGAIMVLPAFPRLKLWRDTLESLQLPVTDAPPVRPGMEKFDLRPSAGFDAAPVRLDAVVVLGDASEPHLQRLSPQHALPLLHGYLARPQAAVRMGLHAATFAHAAAIARQVPVWRLRRPRRFDALDITVDLIEAHVGALEHHHHHH | failed
MEKSAGRGRPSVSVERIVATALEAVDEVGAQAFNMRMLAERLGSGTATLYRHFASKDEILIYVVDSVLGELLADQPEAVELVPQGQGSEGYSWQKACASGAERLYGVLRRHPGILPLLVSQIPIGPNGLKRREQGIALFLANGFPAELAARAYTSVAHYVLGFAIQQHSSASSEAAEGEELVEFFAALDASEYPAIATAGRHLPGISVEEEFRFGLKLIIDGLELAASAWRKADGC | failed
RTHTGEKPYACSHCDKTFRQKQLLDMHFKRYHDPNFVPAAFVCSKCGKTFTRRNTMARHADNCAGPDGVEGEN | not failed
MTSTHQAAHRTGSTMRLRILIATDTYPPDVNGASYFTYRLATGLAERGHDVHVVCASASGPPRVEVQDGVVLHRMRSVPVLVHPTMRTALPLGLTGHIARIVDRLAPHVVHVQSHFTISRTALRCGRMAGVPVVLTNHFMPDNLFAHAHIPPRLHGVVGSLAWQDMIRVARTADYVTTPTQRAAELLASKGFTRTVEAVSCGIDLDRFRPRPQDRAQARAHFGLPDRETMVFVGRLDEEKRIDESIRALPVLLRHRDVQLVLAGTGQRREELERLARSLGVAERVHFLGFVPDDDLPLVYVAADLFVIGSVAELQSIATLEAMSTGLPVVAADALALPHLVRPGRNGYLYPPGDVAQLAQRLLDVLESPDRRTAMGRASRDIAQTHDHHRSLDRFEQIYTEVRPRSWTLSRSASPAARQRDTTVAA | failed
PDHGKAEWFRGADGATLRAATFFPAGPARGSVVLSPGRSEPLEKYFEVVDDLLARDFAVLLHDWRGQGLSARALPDRLKGHARGFKTFVSDYEALLDAFETRMPKPWIAVSHSMGGCLTTLALAQGETRFAAAVLSAPMLGLNTAGVPPWLARPLAFVMSRVGLAGEYVQTPYDPLTQTFQGDGLTHDETRYDRYQAQLRAHPEIALGGMTWGWADFAISACAWLRRSKSVEAIAIPVIILGAELDNRVLNADSESIARRIPKGRYVEVPGAFHEILVETDARRALFWQAFDE | failed
MIGVLSGFFVVWAIILVGMFVGRRNILGENARSVLSSLTFFVASPALLFETLSKAKLHDVFAAPLLVTAVGAVVTGLLFFLIAKFWLKRAMPEALMSSMSSSLANSANLGIPIAVFVLGDASYVAPLLIFQLAFFTPLYLMALDASTSSHRTTPLRFLLMIVKNPMIVGSALGLLVAGTGFHVPTLILEPIHLIGGAAIPAMLMSFGMSLNGSKPLRKASGRRVDTLLASGFKLIVHPLIAYLFARFALGMDGHALFAVVVTSALPTAQNVFVAANRYQAGITVAKDTVLITTIVAVPAMIAVALLLT | failed
MSQDNYFSRMLRGEAPVPAVAGTLGGVIRAVDLEAGSLESDYVATDAFLNPVGQVQGGMLGAMLDDVTAMLVTATLEDGASCSTLNLNLSFLRPAQAGLLRGRARLERRGRNVCNVVGELSQDGKLVATATATCMVARRA | not failed
MGAKGKFWILTMVVAISGLSQGVLLPLIAIILEERGISAGINGFHATGIYLGVLLISPFIEAPLHKYGYKPIILVGGGLVAVSILAFPIWFNLYFWFILRLLIGVGDHMLHFSSQTWIGAMSDPSKRGRNMAIYGLFFSLGFAIGPQLVNLAEINANLPFFLSGILVLIAWGLVWFVRNDFVGEKAVIRKISFWGSLKRFSDVFKLAWVAMIPPFLYGILETGLNATFPVVGLRDGLDTMMIAMVISSFSVGTIIFQVPIGIVSDKFGRGKVLPLLTGAGAVVFVLTAFVKIPVLYVVFFFVLGILLGSLYSLGLSYMTDLTPLELLPAGNILVGMCFSLGSIIGPSATGMMIGIFGNQIFYFVVAGILVLGCLLLIFGARKDALEKKMKN | failed
QYMSYDRNAFGNQVMGQFGNASGSVTSNKIFGFRSDILLQLLNMKISKDHQELNQNQVIQLVPTYLQQLYNEMNNGDPTMYKDLLNLHSNIVHPSGMYMNPLLYANQNPNAAGYNQGTGGVPPMAGGSVAHGPPAAPAP | failed
